For this experiment, the target named is HLA‐DR1 (HLA‐DRA1*01:01/HLA‐DRB*01:01) complexed with the HA_(306‐318) peptide, refolded from E. coli (human | ). The experiment can be described thus: SPR. The following applies: both partners purified.

B1: LAG‐3:Fc fusion protein (four extracellular domains of LAG‐3 and the Fc domain of IgG) (Fc fusion)
chain: LQPGAEVPVVWAQEGAPAQLPCSPTIPLQDLSLLRRAGVTWQHQPDSGPPAAAPGHPLAPGPHPAAPSSWGPRPRRYTVLSVGPGGLRSGRLPLQPRVQLDERGRQRGDFSLWLRPARRADAGEYRAAVHLRDRALSCRLRLRLGQASMTASPPGSLRASDWVILNCSFSRPDRPASVHWFRNRGQGRVPVRESPHHHLAESFLFLPQVSPMDSGPWGCILTYRDGFNVSIMYNLTVLGLEPPTPLTVYAGAGSRVGLPCRLPAGVGTRSFLTAKWTPPGGGPDLLVTGDNGDFTLRLEDVSQAQAGTYTCHIHLQEQQLNATVTLAIITVTPKSFGSPGSLGKLLCEVTPVSGQERFVWSSLDTPSQRSFSGPWLEAQEAQLLSQPWQCQLYQGERLLGAAVYFTELSSPGAQRSGRAPGALPAGHL
Broadly, the Kd is the free concentration of one partner at which half of the binding sites on the other are occupied at equilibrium, for simple one-to-one binding. A high value points to lower affinity. For B1, binding was characterised by a dissociation constant (Kd) of 13.1 µM.

For the origin of these results see paper PMC8101287, “Molecular characterization of HLA class II binding to the LAG‐3 T cell co‐inhibitory receptor” (European Journal of Immunology, 2020).
